# Values quoted from earlier work as cited in patent publication US20210137911A1, “NOVEL CHRONOTHERAPY BASED ON CIRCADIAN RHYTHMS” (THE TRUSTEES OF THE UNIVERSITY OF PENNSYLVANIA, priority 2014, published 2021).
# Settings: in vivo
row,Molecule,½ Life [h]
1,"Filgrastim (protein, chains of the INN, looked up, N-terminal methionine) MTPLGPASSLPQSFLLKCLEQVRKIQGDGAALQEKLCATYKLCHPEELVLLGHSLGIPWAPLSSCPSQALQLAGCLSQLHSGLFLYQGLLQALEGISPELGPTLDTLQLDVADFATTIWQQMEELGMAPALQPTQGAMPAFASAFQRRAGGVLVASHLQSFLEVSYRVLRHLAQP",3.5
2,"Tenecteplase (protein, UniProt P00750 36-562, looked up, variant T103N N117Q K296A H297A R298A R299A) Tissue-type plasminogen …: SYQVICRDEKTQMIYQQHQSWLRPVLRSNRVEYCWCNSGRAQCHSVPVKSCSEPRCFNGGTCQQALYFSDFVCQCPEGFAGKCCEIDTRATCYEDQGISYRGNWSTAESGAECTNWQSSALAQKPYSGRRPDAIRLGLGNHNYCRNPDRDSKPWCYVFKAGKYSSEFCSTPACSEGNSDCYFGNGSAYRGTHSLTESGASCLPWNSMILIGKVYTAQNPSAQALGLGKHNYCRNPDGDAKPWCHVLKNRRLTWEYCDVPSCSTCGLRQYSQPQFRIKGGLFADIASHPWQAAIFAAAAASPGERFLCGGILISSCWILSAAHCFQERFPPHHLTVILGRTYRVVPGEEEQKFEVEKYIVHKEFDDDTYDNDIALLQLKSDSSRCAQESSVVRTVCLPPADLQLPDWTECELSGYGKHEALSPFYSERLKEAHVRLYPSSRCTSQHLLNRTVTDNMLCAGDTRSGGPQANLHDACQGDSGGPLVCLNDGRMTLVGIISWGLGCGQKDVPGVYTKVTNYLDWIRDNMRP",1.9
3,"Idursulfase (protein, UniProt P22304 34-455; P22304 456-550, looked up) Iduronate 2-sulfatase 42 kDa …: TDALNVLLIIVDDLRPSLGCYGDKLVRSPNIDQLASHSLLFQNAFAQQAVCAPSRVSFLTGRRPDTTRLYDFNSYWRVHAGNFSTIPQYFKENGYVTMSVGKVFHPGISSNHTDDSPYSWSFPPYHPSSEKYENTKTCRGPDGELHANLLCPVDVLDVPEGTLPDKQSTEQAIQLLEKMKTSASPFFLAVGYHKPHIPFRYPKEFQKLYPLENITLAPDPEVPDGLPPVAYNPWMDIRQREDVQALNISVPYGPIPVDFQRKIRQSYFASVSYLDTQVGRLLSALDDLQLANSTIIAFTSDHGWALGEHGEWAKYSNFDVATHVPLIFYVPGRTASLPEAGEKLFPYLDPFDSASQLMEPGRQSMDLVELVSLFPTLAGLAGLQVPPRCPVPSFHVELCREGKNLLKHFRFRDLEEDPYLPG Iduronate 2-sulfatase 14 kDa …: NPRELIAYSQYPRPSDIPQWNSDKPSLKDIKIMGYSIRTIDYRYTVWVGFNPDEFLANFSDIHAGELYFVDSDPLQDHNMYNDSQGGDLFQLLMP",0.733
